Substrate: N
Test: cells, lysate or membranes
Settings: intact cells, total NH3 + NH4+, 0.1% DMSO, no inhibitor, whole-cell nitrite read-out
[1] = 50 mM sodium phosphate pH 7.7, 2 mM MgCl2, 30°C, pH 7.7, 30.0 °C
[2] = 10 mM HEPES pH 7, 37°C, pH 7.0, 37.0 °C

| Protein | Km [1] | Vmax [1] [µmol/min/mg] | Km [2] | Vmax [2] [µmol/min/mg] |
| --- | --- | --- | --- | --- |
| AMO from Nitrosomonas europaea (Nitrosomonas europaea ATCC 19718) (protein) chain 1: SIFRTEEILKAAKMPPEAVHMSRLIDAVYFPILIILLVGTYHMHFMLLAGDWDFWMDWKDRQWWPVVTPIVGITYCSAIMYYLWVNYRQPFGATLCVVCLLIGEWLTRYWGFYWWSHYPINFVTPGIMLPGALMLDFTLYLTRNWLVTALVGGGFFGLLFYPGNWPIFGPTHLPIVVEGTLLSMADYMGHLYVRTGTPEYVRHIEQGSLRTFGGHTTVIAAFFSAFVSMLMFTVWWYLGKVYCTAFFYVKGKRGRIVHRNDVTAFGEEGFPEGIK chain 2: MTVTLDVSTVAAHGERSQEPFLRMRTVQWYDIKWGPEVTKVNENAKITGKFHLAEDWPRAAAQPDFSFFNVGSPSPVFVRLSTKINGHPWFISGPLQIGRDYEFEVNLRARIPGRHHMHAMLNVKDAGPIAGPGAWMNITGSWDDFTNPLKLLTGETIDSETFNLSNGIFWHVVWMSIGIFWIGVFTARPMFLPRSRVLLAYGDDLLMDPMDKKITWVLAILTLALVWGGYRYTENKHPYTVPIQAGQSKVAALPVAPNPVSIVITDANYDVPGRALRVTMEVTNNGDIPVTFGEFTTAGIRFINSTGRKYLDPQYPRELIAVGLNFDDESAIQPGQTKELKMEAKDALWEIQRLMALLGDPESRFGGLLMSWDAEGNRHINSIAGPVIPVFTKL chain 3: MATTLGTSSASSVSSRGYDMSLWYDSKFYKFGMITMLLVAIFWVWYQRYFAYSHGMDSMEPEFDRVWMGLWRVHMAIMPLFALVTWGWILKTRDTKEQLDNLDPKLEIKRYFYYMMWLGVYIFGVYWGGSFFTEQDASWHQVIIRDTSFTPSHVVMFYGSFPMYIVCGVATYLYAMTRLPLFSRGISFPLVMAIAGPLMILPNVGLNEWGHAFWFMEELFSAPLHWGFVVLGWAGLFQGGVAAQIITRYSNLTDVVWNNQSKEILNNRIVA | 520.3 (19.6) μM | 0.324 | – | – |
| AMO from "Ca. Nitrosocosmicus franklandus" C13 (Candidatus Nitrosocosmicus franklandianus) (protein) chain 1: MVWLRRTTHYLFIVVVAVNSTLLTINAGDYIFYTDWAWTSFVVFSISQSTMLVVGAIYYMLFTGVPGTATYYATIMTIYTWVAKGAWFALGYPYDFVVVPVWIPSAMLLDLAYWATRRNKHAAILIGGVLVGMSLPLFNMINLLLVADPLEMAFKYPRPTLPPYMTPIEPQVGKFYNSPVALGAGAGAVLCVPIAALGAKLNTWTYRWMAAWSKWD chain 2: MNEKSGNKPAMVFLIVTFVAGASILASIIALLPLADGHGVQAQLQSRFVRINNEAFSAQSLNTGDTLVVTGELQSLVNRPMRGWISLFSESTNAGNRWEFVSRDPPGNIIEIQPQETVPYRLEAKALEPGVYHVHTQLNLASVGPGLGPGQTIQVVGDPILKPIPWNNIIYQSIIIAAGLGVTFATRPWQVI chain 3: MAQMPALIPKEVEIQRLKKIYLMVIMLGSIAASVEVDNFVDGSLHQTAIRDSAFTPAHWWLYSHFIALPLGWGFVAMYDRRVPVLRGPNNSMNTGLKITIIGYLATMFTIGINEMWHFWFVEEIFSVPNHWMFNMGVVVAFMGALAYVVRVYARLVELGAETPARNPYVAEMYKLALEGKLYSRSIP | – | – | 26.7 (4.7) μM | 0.0641 |

— article PMC7170481, “Inhibition of Ammonia Monooxygenase from Ammonia-Oxidizing Archaea by Linear and Aromatic Alkynes” (Applied and Environmental Microbiology, 2020)
